From the supplement of paper PMC5998384

How the values were obtained:
HeLa Kyoto [1] = assay: solubility in G1/S (NP-40 vs SDS abundance) (log2 ratio); higher = more soluble; settings: cell cycle stage: G1/S
HeLa Kyoto [2] = assay: melting temperature (median over replicates), in situ; higher = more thermally stable
HeLa Kyoto [3] = assay: solubility change mitosis vs G1/S (difference of NP-40 vs SDS log2 ratios) (log2 ratio difference); higher = more soluble in mitosis
HeLa Kyoto [4] = assay: thermal stability score vs G1/S (z-score of summed log2 fold changes over temperatures); higher = more thermally stable than in G1/S
[5] = cell cycle stage: early G1 (4.5 h after nocodazole release)
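Wherever melting temperature (median over replicates), in situ is given: HeLa Kyoto cells synchronized by double thymidine or nocodazole block, proteins quantified by TMT10plex mass spectrometry, three independent biological replicates.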
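Wherever solubility change mitosis vs G1/S (difference of NP-40 vs SDS log2 ratios) is given: synchronized HeLa Kyoto cells (double thymidine block for G1/S, nocodazole release for mitosis), protein amounts in NP-40 versus SDS lysates quantified by mass spectrometry, three biological replicates.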
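Wherever solubility in G1/S (NP-40 vs SDS abundance) is given: HeLa Kyoto cells arrested at G1/S by double thymidine block, proteins quantified by TMT10plex mass spectrometry in mild NP-40 versus SDS extracts, three biological replicates.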
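Wherever thermal stability score vs G1/S (z-score of summed log2 fold changes over temperatures) is given: synchronized HeLa Kyoto cells, proteins quantified by TMT10plex mass spectrometry, three biological replicates, mitosis taken 0.5 h after nocodazole release, G1/S directly after double thymidine block.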

Sequence | solubility in G1/S (log2) (HeLa Kyoto [1]) | melting temperature (HeLa Kyoto [2]; cell cycle stage: G1/S) [°C] | melting temperature (HeLa Kyoto [2]; cell cycle stage: mitosis) [°C] | solubility change mitosis (log2) (HeLa Kyoto [3]) | thermal stability score (HeLa Kyoto [4]; [5]) | thermal stability score (HeLa Kyoto [4]; cell cycle stage: mitosis)
MKSLSLLLAVALGLATAVSAGPAVIECWFVEDASGKGLAKRPGALLLRQGPGEPPPRPDLDPELYLSVHDPAGALQAAFRRYPRGAPAPHCEMSRFVPLPASAKWASGLTPAQNCPRALDGAWLMVSISSPVLSLSSLLRPQPEPQQEPVLITMATVVLTVLTHTPAPRVRLGQDALLDLSFAYMPPTSEAASSLAPGPPPFGLEWRRQHLGKGHLLLAATPGLNGQMPAAQEGAVAFAAWDDDEPWGPWTGNGTFWLPTVQPFQEGTYLATIHLPYLQGQVTLELAVYKPPKVSLMPATLARAAPGEAPPELLCLVSHFYPSGGLEVEWELRGGPGGRSQKAEGQRWLSALRHHSDGSVSLSGHLQPPPVTTEQHGARYACRIHHPSLPASGRSAEVTLEVAGLSGPSLEDSVGLFLSAFLLLGLFKALGWAAVYLSTCKDSKKKAE [TAPBP] | 0.297 | 52.5 | 53 | 0.000151 | 0.903 | 1.98
MKVARFQKIPNGENETMIPVLTSKKASELPVSEVASILQADLQNGLNKCEVSHRRAFHGWNEFDISEDEPLWKKYISQFKNPLIMLLLASAVISVLMHQFDDAVSITVAILIVVTVAFVQEYRSEKSLEELSKLVPPECHCVREGKLEHTLARDLVPGDTVCLSVGDRVPADLRLFEAVDLSIDESSLTGETTPCSKVTAPQPAATNGDLASRSNIAFMGTLVRCGKAKGVVIGTGENSEFGEVFKMMQAEEAPKTPLQKSMDLLGKQLSFYSFGIIGIIMLVGWLLGKDILEMFTISVSLAVAAIPEGLPIVVTVTLALGVMRMVKKRAIVKKLPIVETLGCCNVICSDKTGTLTKNEMTVTHIFTSDGLHAEVTGVGYNQFGEVIVDGDVVHGFYNPAVSRIVEAGCVCNDAVIRNNTLMGKPTEGALIALAMKMGLDGLQQDYIRKAEYPFSSEQKWMAVKCVHRTQQDRPEICFMKGAYEQVIKYCTTYQSKGQTLTLTQQQRDVYQQEKARMGSAGLRVLALASGPELGQLTFLGLVGIIDPPRTGVKEAVTTLIASGVSIKMITGDSQETAVAIASRLGLYSKTSQSVSGEEIDAMDVQQLSQIVPKVAVFYRASPRHKMKIIKSLQKNGSVVAMTGDGVNDAVALKAADIGVAMGQTGTDVCKEAADMILVDDDFQTIMSAIEEGKGIYNNIKNFVRFQLSTSIAALTLISLATLMNFPNPLNAMQILWINIIMDGPPAQSLGVEPVDKDVIRKPPRNWKDSILTKNLILKILVSSIIIVCGTLFVFWRELRDNVITPRDTTMTFTCFVFFDMFNALSSRSQTKSVFEIGLCSNRMFCYAVLGSIMGQLLVIYFPPLQKVFQTESLSILDLLFLLGLTSSVCIVAEIIKKVERSREKIQKHVSSTSSSFLEV [ATP2C1] | -0.143 | 54.1 | 54.2 | -0.0972 | -1.8 | -1.34
MKVTLSALDTSESSFTPLVVIELAQDVKEETKEWLKNRIIAKKKDGGAQLLFRPLLNKYEQETLENQNLYLVGASKIRMLLGAEAVGLVKECNDNTMRAFTYRTRQNFKGFDDNNDDFLTMAECQFIIKHELENLRAKDEKMIPGYPQAKLYPGKSLLRRLLTSGIVIQVFPLHDSEALKKLEDTWYTRFALKYQPIDSIRGYFGETIALYFGFLEYFTFALIPMAVIGLPYYLFVWEDYDKYVIFASFNLIWSTVILELWKRGCANMTYRWGTLLMKRKFEEPRPGFHGVLGINSITGKEEPLYPSYKRQLRIYLVSLPFVCLCLYFSLYVMMIYFDMEVWALGLHENSGSEWTSVLLYVPSIIYAIVIEIMNRLYRYAAEFLTSWENHRLESAYQNHLILKVLVFNFLNCFASLFYIAFVLKDMKLLRQSLATLLITSQILNQIMESFLPYWLQRKHGVRVKRKVQALKADIDATLYEQVILEKEMGTYLGTFDDYLELFLQFGYVSLFSCVYPLAAAFAVLNNFTEVNSDALKMCRVFKRPFSEPSANIGVWQLAFETMSVISVVTNCALIGMSPQVNAVFPESKADLILIVVAVEHALLALKFILAFAIPDKPRHIQMKLARLEFESLEALKQQQMKLVTENLKEEPMESGKEKAT [ANO10] | -0.181 | 53.2 | 51.9 | -0.214 | -0.93 | -1.12
MLAARLVCLRTLPSRVFHPAFTKASPVVKNSITKNQWLLTPSREYATKTRIGIRRGRTGQELKEAALEPSMEKIFKIDQMGRWFVAGGAAVGLGALCYYGLGLSNEIGAIEKAVIWPQYVKDRIHSTYMYLAGSIGLTALSAIAISRTPVLMNFMMRGSWVTIGVTFAAMVGAGMLVRSIPYDQSPGPKHLAWLLHSGVMGAVVAPLTILGGPLLIRAAWYTAGIVGGLSTVAMCAPSEKFLNMGAPLGVGLGLVFVSSLGSMFLPPTTVAGATLYSVAMYGGLVLFSMFLLYDTQKVIKRAEVSPMYGVQKYDPINSMLSIYMDTLNIFMRVATMLATGGNRKK [GHITM] | -0.101 | 54.7 | 55.1 | 0.0227 | -2.96 | -4.77
MLARAARGTGALLLRGSLLASGRAPRRASSGLPRNTVVLFVPQQEAWVVERMGRFHRILEPGLNILIPVLDRIRYVQSLKEIVINVPEQSAVTLDNVTLQIDGVLYLRIMDPYKASYGVEDPEYAVTQLAQTTMRSELGKLSLDKVFRERESLNASIVDAINQAADCWGIRCLRYEIKDIHVPPRVKESMQMQVEAERRKRATVLESEGTRESAINVAEGKKQAQILASEAEKAEQINQAAGEASAVLAKAKAKAEAIRILAAALTQHNGDAAASLTVAEQYVSAFSKLAKDSNTILLPSNPGDVTSMVAQAMGVYGALTKAPVPGTPDSLSSGSSRDVQGTDASLDEELDRVKMS [STOML2] | 0.262 | 56.9 | 59.3 | 0.0559 | -3.41 | -3.22
MLCGRWRRCRRPPEEPPVAAQVAAQVAAPVALPSPPTPSDGGTKRPGLRALKKMGLTEDEDVRAMLRGSRLRKIRSRTWHKERLYRLQEDGLSVWFQRRIPRAPSQHIFFVQHIEAVREGHQSEGLRRFGGAFAPARCLTIAFKGRRKNLDLAAPTAEEAQRWVRGLTKLRARLDAMSQRERLDHWIHSYLHRADSNQDSKMSFKEIKSLLRMVNVDMNDMYAYLLFKECDHSNNDRLEGAEIEEFLRRLLKRPELEEIFHQYSGEDRVLSAPELLEFLEDQGEEGATLARAQQLIQTYELNETAKQHELMTLDGFMMYLLSPEGAALDNTHTCVFQDMNQPLAHYFISSSHNTYLTDSQIGGPSSTEAYVRAFAQGCRCVELDCWEGPGGEPVIYHGHTLTSKILFRDVVQAVRDHAFTLSPYPVILSLENHCGLEQQAAMARHLCTILGDMLVTQALDSPNPEELPSPEQLKGRVLVKGKKLPAARSEDGRALSDREEEEEDDEEEEEEVEAAAQRRLAKQISPELSALAVYCHATRLRTLHPAPNAPQPCQVSSLSERKAKKLIREAGNSFVRHNARQLTRVYPLGLRMNSANYSPQEMWNSGCQLVALNFQTPGYEMDLNAGRFLVNGQCGYVLKPACLRQPDSTFDPEYPGPPRTTLSIQVLTAQQLPKLNAEKPHSIVDPLVRIEIHGVPADCARQETDYVLNNGFNPRWGQTLQFQLRAPELALVRFVVEDYDATSPNDFVGQFTLPLSSLKQGYRHIHLLSKDGASLSPATLFIQIRIQRS [PLCD3] | -0.344 | 51.6 | 48.9 | 0.0889 | 0.427 | 0.0629
MLDFFTIFSKGGLVLWCFQGVSDSCTGPVNALIRSVLLQERGGNNSFTHEALTLKYKLDNQFELVFVVGFQKILTLTYVDKLIDDVHRLFRDKYRTEIQQQSALSLLNGTFDFQNDFLRLLREAEESSKIRAPTTMKKFEDSEKAKKPVRSMIETRGEKPKEKAKNSKKKGAKKEGSDGPLATSKPVPAEKSGLPVGPENGVELSKEELIRRKREEFIQKHGRGMEKSNKSTKSDAPKEKGKKAPRVWELGGCANKEVLDYSTPTTNGTPEAALSEDINLIRGTGSGGQLQDLDCSSSDDEGAAQNSTKPSATKGTLGGMFGMLKGLVGSKSLSREDMESVLDKMRDHLIAKNVAADIAVQLCESVANKLEGKVMGTFSTVTSTVKQALQESLVQILQPQRRVDMLRDIMDAQRRQRPYVVTFCGVNGVGKSTNLAKISFWLLENGFSVLIAACDTFRAGAVEQLRTHTRRLSALHPPEKHGGRTMVQLFEKGYGKDAAGIAMEAIAFARNQGFDVVLVDTAGRMQDNAPLMTALAKLITVNTPDLVLFVGEALVGNEAVDQLVKFNRALADHSMAQTPRLIDGIVLTKFDTIDDKVGAAISMTYITSKPIVFVGTGQTYCDLRSLNAKAVVAALMKA [SRPR] | 0.119 | 50.5 | 50.9 | -0.0915 | 1.98 | 2.56
